Here are results for one molecule from patent CN114621343A.

Assay [1] concerns the target JEV病毒抗原 (JEV Beijing-1株) (Japanese encephalitis virus, Beijing-1 strain). Put plainly: cell-based or functional assay.
Assay [2] concerns the target JEV包膜E蛋白 (Japanese encephalitis virus (strain not stated)). Briefly: SPR, Biacore T200; 2G1 captured on CM5 chip, E protein as analyte. In general terms: In SPR one partner is held on a chip, and binding of the other changes the refractive index at the surface.

B1: 乙型脑炎病毒鼠源性单克隆抗体2G1 (antibody, V domains shown)
VH: DVQLQESGLDRVKPSQSLSLTCTVTGYSIISGYSWHWIRQFPGKKLEWMGYIHYSGSATYSPSLKSRISITRDTSKNQFFLQLNSVTTEDTATFYCARGDGSSPYYGMDHWGQGTSVTVSS
VL: DIVLTQSPPSLAVSLGQRATISCRASESVEYSGTGLIHWYQQKPGQPPKLLIYAASSVESGVPARFSGSGSGTDFSLNIHPVEDDDLALYFCQQSRKLPWTFGGGSKLEINR
In the case of B1, in assay [1], the 半数中和浓度(Neut50) was found to be 0.149 µg/mL. Further, in assay [2], the dissociation constant (Kd) (in general, the concentration at which binding is half-saturated) worked out at 16.5 nM; the koff (usually the first-order rate constant of dissociation) was determined as 7.06e-05 s⁻¹; the kon – broadly, a measure of how fast the partners come together – is 4270 M⁻¹ s⁻¹.
